Like-named read-outs stand apart in the source and are kept apart here.
Key:
[1] = mouse, in vivo, iv
Method: Pharmacokinetics studies were conducted in female C57BL/6 mice, SD rats, and cynomolgus monkeys. […] A non-GLP single-dose PK study was performed in C57BL/6 mice (10-11 weeks) at Gateway Pharmacology Laboratories in Chesterfield, Mo. Additional pharmacokinetic and toxicology studies were conducted in naive young adult Sprague Dawley rats (7-10 weeks) and cynomolgus monkeys (2-4 years).
The lower limit of quantitation (LLOQ) for the non-GLP assays were 125, 125, and 250 ng/mL for the mouse, rat, and cynomolgus monkey, respectively; and 75 ng/mL for the optimized and validated GLP assays (rat and monkey). The absorbance-versus concentration relationship was regressed using a 4-parameter logistic curve fit (with a weighting factor of 1/Y2 for the validated assays to support the toxicokinetic studies), and concentrations were calculated using GraphPad Prism or Watson LIMS (Thermo, Pennsylvania, USA) data reduction software.
Female mice were group housed (3-5 mice/cage) in polycarbonate cages containing appropriate bedding and water valves in a controlled environment (17.8-26.7° C.; 30-70% relative humidity; 12-hour light and dark cycles) and were offered standard rodent chow (PicoLab Rodent Diet 20) and tap water ad libitum. Mice were randomly assigned to treatment groups for all studies.
PK parameters were calculated in Phoenix® WinNonlin® (Certara USA Inc.) from the concentration-time data using a noncompartmental analysis method with intravenous (IV) bolus input. Nominal doses and sampling times were used. […] Area under the concentration time curve (AUC) was computed using the linear trapezoidal approximation method. Terminal half-life (t1/2) was estimated by log-linear regression of the terminal phase of the mean concentration versus time profiles. At least 3 points clearly visible in the terminal phase, an r^2 value of at least 0.8, and time interval of at least 3 half-lives (in the GLP toxicity studies only) were required to characterize half-life.

Cloudman S91 tumors = assay: Cloudman S91 melanoma model; type: in vivo, DBA/2 mouse; details: dose range 3, 10 and 30 mg/kg
Method: Clone M3 [Cloudman S91 melanoma] (ATCC® CCL-53.1™) cells were obtained from the American Type Culture Collection (ATCC), and were maintained at CR Discovery Services as exponentially growing suspension cultures in Kaighn's modified Ham's F12 Medium supplemented with 2.5% fetal bovine serum, 15% horse serum, 2 mM glutamine, 100 units/mL penicillin G sodium, 100 μg/mL streptomycin sulfate and 25 μg/mL gentamicin. The tumor cells were grown in tissue culture flasks in a humidified incubator at 37° C., in an atmosphere of 5% CO2 and 95% air.
When tumors reached a volume of 125-175 mm^3 mice were randomized into groups of 12 with identical mean tumor volumes and dosing began.
Group 1 received anti-PD-1 antibody only. […] An untreated control was used, data not shown.
Percent tumor growth delay (% TGD) is defined as the increase in the median time to endpoint in a treatment group compared to the untreated control, expressed as a percentage of the median time to endpoint (TTE) of the control: • T=median TTE for treatment • C=median TTE for control
Results are summarized below (see FIGS. 9, 11 & 12).
(§1) All antibodies were dosed intraperitoneally.

[2] = first-in-human dose selection (allometric scaling, PAD, safety factors); details: S91, MBT-2, EMT-6 models, with anti-PD-1
Method: In vivo pharmacology data was utilized to predict the human pharmacological active dose (PAD) and recommended the FIH dose. In addition, safety margins were determined between the predicted exposure at the recommended FIH dose and the exposure achieved at the NOAELs in toxicology studies.

MBT2 tumors = assay: MBT2 syngeneic bladder cancer model, efficacy; type: in vivo, C3H/HeN mouse
Method: Group 1 received anti-PD-1 antibody only. […] An untreated control was used, not shown.
as §1

EMT6 tumors = assay: EMT-6 syngeneic breast carcinoma model; type: in vivo, BALB/c mouse; details: dose 10 mg/kg
Method: EMT6 tumors were implanted subcutaneously. Treatment began when EMT6 tumors reached 30-80 mm^3. Anti-PD-1 was dosed at 10 mkg twice weekly. […] Anti-TGFβ3 neutralizing antibody was dosed at 30 mkg once weekly.
Responders are defined as those achieving tumor size of <25% of the endpoint volume at study end.
as §1

[3] = test system: intratumoral immune cells in MBT2 tumors; assay: MBT2 tumor immune contexture (flow cytometry, IHC, qPCR); type: in vivo, mouse; details: MBT-2
Description: To study the immune effects of anti-PD-1 or Ab6-mIgG1 treatment as single agents or in combination, MBT-2 tumors were harvested from mice 10 days after treatment initiation and then subjected to immunohistochemical and flow cytometry analyses of select immune cell markers. […] The relevance of this increase in Treg cells is unclear given the significant anti-tumor effects observed with combination treatment. […] This appears to be due to selective reduction in CD11 b+CD206+ and CD11 b+Gr1+ subpopulations, which correspond to immunosuppressive M2-like macrophages and myeloid-derived suppressor cells (MDSC), respectively. Collectively, the representation of these two populations of cells is reduced from an average of 47% of the CD45+ cell population to 14% after combination treatment (FIG. 28B).
Each study group contained 12 mice with MBT2 tumors as described herein. […]
Flow cytometric analysis: Tumor-associated immune cell subsets were also analyzed by tumor flow cytometry in MBT-2 tumors. […] Flow cytometry was performed on a Attune NxT (ThermoFisher) and analyzed with FlowJo (BD Bioscience).
For immunohistochemical analysis, tumors from six animals were cut in halves and fixed. […] FIG. 30E provides the quantitation of the IHC data, shown as % of CD8-positive cells of total nuclei. […]

proTGFβ1 / latent TGFβ1 = biological target: T1, proTGFβ1 / latent TGFβ1 (Homo sapiens, UniProt P01137, C33S); assay: HDX-MS epitope mapping; details: Fab binding
T1 construct: The small latent TGFβ complexes were expressed with an N-terminal His-tag; His-tag (N); made in house; host or cells: Expi293F cells
Description: To gain initial insights into the inhibitory mechanism of action for the isoform-selective inhibitors of TGFβ1 activation, we performed Hydrogen-Deuterium Exchange Mass Spectrometry (H/DX-MS) analysis to identify possible sites of latent TGFβ1 interaction with the antibody. Hydrogen/Deuterium exchange mass spectrometry (HDX-MS) is a widely used technique for exploring protein conformation in solution. HDX-MS methodology is described in Wei et al., Drug Discov Today. 2014 January; 19(1): 95-102, incorporated by reference in its entirety herein. Briefly, HDX-MS relies on the exchange of the protein backbone amide hydrogens with deuterium in solution. […]
Accurate mass and collision-induced dissociation in data-independent acquisition mode (MSE) and ProteinLynx Global Server (PLGS) 3.0 software (Waters Corp., Milford, Mass.) were used to determine the peptic peptides in the undeuterated protein samples analyzed on the same UPLC-ESI-QToF system used for H/DX-MS experiments. […] The relative deuterium incorporation of each peptide was determined by subtracting the weight-averaged centroid mass of the isotopic distribution of undeuterated control sample from that of the weight-averaged centroid mass of the isotopic distribution of deuterium-labeled samples at each labeling time point. […]

human LTBP1-ProTGFb1 = biological target: T2, human LTBP1-ProTGFb1 (Homo sapiens, UniProt P01137); assay: SPR (Biacore 8K) Fab binding kinetics; details: Fab 0.62-10 nM, 1:1 binding model
T2 construct: made in house; host or cells: Expi293F cells, co-transfected with pTT5 plasmids
Method: (§2) Briefly, the binding kinetics were evaluated by surface plasmon resonance using Biacore 8K (GE Healthcare). A Biotin CAP sensor chip was used to capture the biotinylated antigens. Fabs at various concentrations (0 nM, 0.62 nM, 1.25 nM, 2.5 nM, 5 nM and 10 nM) were injected over the captured antigens. Multi-cycle kinetics was employed where each analyte concentration was injected in a separate cycle and the sensor chip surface was regenerated after each cycle. All the assays were carried out in freshly prepared 1×HBS-EP+ buffer (10 mM HEPES, 150 mM NaCl, 3 mM EDTA, 0.05% Tween20, pH 7.4). Data for all the analyte concentrations for each interaction were fit globally to a 1:1 binding model to obtain the kinetic parameters. The Sensorgram for 0 nM analyte concentration was used as reference.
(§3) Binding kinetics was evaluated by surface plasmon resonance using a Biacore 8K (GE) instrument. Biotinylated antigens were captured on a Biotin CAP chip and the Fab fragments of the antibodies were used as analytes. Sensorgrams for Fab binding at variable concentrations (0.6-10 nM) were globally fit to obtain the kinetic parameters. Binding kinetics for the Fabs were evaluated against each of the four human antigens, LTBP1-ProTGFb1, LTBP3-ProTGFb1, GARP-ProTGFb1, and LRRC33-ProTGFb1.

human GARP-ProTGFb1 = biological target: T3, human GARP-ProTGFb1 (Homo sapiens, UniProt P01137); assay: SPR (Biacore 8K) Fab binding kinetics; details: Fab 0.62-10 nM, 1:1 binding model
T3 construct: made in house
Method: as §2, §3

human LTBP3-ProTGFb1 = biological target: T4, human LTBP3-ProTGFb1 (Homo sapiens, UniProt P01137); assay: SPR (Biacore 8K) Fab binding kinetics; details: Fab 0.62-10 nM, 1:1 binding model
T4 construct: made in house; host or cells: Expi293F cells, co-transfected with pTT5 plasmids
Method: as §2, §3

human LRRC33-ProTGFb1 = biological target: T5, human LRRC33-ProTGFb1 (Homo sapiens, UniProt P01137); assay: SPR (Biacore 8K) Fab binding kinetics; details: Fab 0.62-10 nM, 1:1 binding model
T5 construct: made in house
Method: as §2, §3

T5 sequence (P01137 30-390): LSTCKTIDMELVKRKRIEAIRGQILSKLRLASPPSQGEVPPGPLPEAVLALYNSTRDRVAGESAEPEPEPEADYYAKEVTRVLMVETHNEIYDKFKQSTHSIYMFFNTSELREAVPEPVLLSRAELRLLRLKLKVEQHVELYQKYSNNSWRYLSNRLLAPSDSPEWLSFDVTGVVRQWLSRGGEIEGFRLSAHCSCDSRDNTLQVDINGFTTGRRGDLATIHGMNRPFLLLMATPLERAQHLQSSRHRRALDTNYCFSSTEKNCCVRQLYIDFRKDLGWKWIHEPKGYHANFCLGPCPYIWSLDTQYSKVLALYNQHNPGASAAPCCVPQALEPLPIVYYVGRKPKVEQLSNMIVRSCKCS
T5 sequence (Q86YC3 19-650 partner limits assumed): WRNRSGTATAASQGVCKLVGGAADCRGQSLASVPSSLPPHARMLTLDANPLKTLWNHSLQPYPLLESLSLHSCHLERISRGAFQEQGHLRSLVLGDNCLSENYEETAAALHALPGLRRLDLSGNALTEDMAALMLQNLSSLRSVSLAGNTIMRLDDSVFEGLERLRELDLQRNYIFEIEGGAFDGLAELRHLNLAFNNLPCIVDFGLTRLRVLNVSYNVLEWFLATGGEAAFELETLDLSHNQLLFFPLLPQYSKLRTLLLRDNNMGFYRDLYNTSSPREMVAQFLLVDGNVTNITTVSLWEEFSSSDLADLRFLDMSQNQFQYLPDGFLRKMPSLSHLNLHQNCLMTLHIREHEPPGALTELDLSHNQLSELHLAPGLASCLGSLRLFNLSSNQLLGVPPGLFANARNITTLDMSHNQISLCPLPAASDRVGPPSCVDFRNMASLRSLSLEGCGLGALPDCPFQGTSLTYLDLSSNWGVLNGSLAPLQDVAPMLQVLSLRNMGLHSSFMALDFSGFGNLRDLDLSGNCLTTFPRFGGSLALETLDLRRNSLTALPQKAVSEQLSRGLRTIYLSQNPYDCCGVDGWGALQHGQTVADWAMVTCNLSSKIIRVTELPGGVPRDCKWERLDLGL
T3 sequence (P01137 30-390): as the sequence (P01137 30-390) above
T3 sequence (Q14392 20-627 partner limits assumed): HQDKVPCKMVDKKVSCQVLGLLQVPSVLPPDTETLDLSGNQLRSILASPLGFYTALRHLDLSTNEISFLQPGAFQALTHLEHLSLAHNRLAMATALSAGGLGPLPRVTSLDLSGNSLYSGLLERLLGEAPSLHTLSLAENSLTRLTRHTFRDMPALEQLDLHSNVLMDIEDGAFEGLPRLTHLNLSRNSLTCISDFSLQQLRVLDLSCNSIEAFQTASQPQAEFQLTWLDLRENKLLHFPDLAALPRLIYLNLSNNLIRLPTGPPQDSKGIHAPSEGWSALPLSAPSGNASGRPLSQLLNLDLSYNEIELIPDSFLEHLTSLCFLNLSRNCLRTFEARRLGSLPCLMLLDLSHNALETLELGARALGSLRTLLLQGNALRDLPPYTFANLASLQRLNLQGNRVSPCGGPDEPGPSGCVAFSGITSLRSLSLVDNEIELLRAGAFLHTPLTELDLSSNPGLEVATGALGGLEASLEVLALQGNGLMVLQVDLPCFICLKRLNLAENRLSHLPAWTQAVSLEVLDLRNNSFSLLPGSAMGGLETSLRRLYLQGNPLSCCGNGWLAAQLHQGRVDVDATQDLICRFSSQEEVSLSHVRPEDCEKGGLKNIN
T2 sequence (P01137 30-390): as the sequence (P01137 30-390) above
T2 sequence (Q14766 873-1507 partner): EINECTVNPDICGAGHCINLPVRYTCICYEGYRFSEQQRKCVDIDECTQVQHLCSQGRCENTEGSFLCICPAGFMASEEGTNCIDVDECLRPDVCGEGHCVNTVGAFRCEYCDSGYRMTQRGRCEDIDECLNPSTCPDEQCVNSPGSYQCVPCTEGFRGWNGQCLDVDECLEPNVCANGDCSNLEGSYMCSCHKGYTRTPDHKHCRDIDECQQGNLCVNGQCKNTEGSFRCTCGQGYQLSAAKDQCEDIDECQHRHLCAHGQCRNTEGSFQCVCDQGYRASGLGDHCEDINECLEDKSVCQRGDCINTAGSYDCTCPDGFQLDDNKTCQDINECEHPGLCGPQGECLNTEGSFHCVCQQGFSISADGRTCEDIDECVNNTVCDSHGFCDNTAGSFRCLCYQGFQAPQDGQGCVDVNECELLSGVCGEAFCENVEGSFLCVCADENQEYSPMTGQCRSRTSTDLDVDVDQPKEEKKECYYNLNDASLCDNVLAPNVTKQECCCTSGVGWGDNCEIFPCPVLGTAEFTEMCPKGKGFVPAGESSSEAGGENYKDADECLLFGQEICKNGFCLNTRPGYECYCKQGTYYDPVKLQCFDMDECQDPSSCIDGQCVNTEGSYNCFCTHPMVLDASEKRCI
T4 sequence (P01137 30-390): as the sequence (P01137 30-390) above
T4 sequence (Q9NS15 866-1039 partner limits assumed): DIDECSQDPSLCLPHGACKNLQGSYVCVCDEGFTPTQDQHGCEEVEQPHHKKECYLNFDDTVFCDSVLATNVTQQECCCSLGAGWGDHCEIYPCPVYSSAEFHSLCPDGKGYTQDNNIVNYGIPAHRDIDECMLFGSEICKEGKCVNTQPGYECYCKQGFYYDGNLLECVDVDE
T1 sequence (P01137 with tags, fused parts or gaps C33S): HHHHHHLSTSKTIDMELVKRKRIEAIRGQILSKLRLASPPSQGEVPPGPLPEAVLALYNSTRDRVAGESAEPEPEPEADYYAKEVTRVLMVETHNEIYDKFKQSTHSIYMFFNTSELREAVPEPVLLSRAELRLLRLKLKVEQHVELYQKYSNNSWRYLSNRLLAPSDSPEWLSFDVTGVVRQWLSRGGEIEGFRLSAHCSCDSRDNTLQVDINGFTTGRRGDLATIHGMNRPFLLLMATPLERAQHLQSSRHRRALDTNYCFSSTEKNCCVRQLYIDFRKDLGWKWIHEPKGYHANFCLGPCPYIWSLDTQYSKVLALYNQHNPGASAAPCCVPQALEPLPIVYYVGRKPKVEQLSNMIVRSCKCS

B1: Ab6-mIgG1: chimeric antibody with the human V domains of Ab6 fused to mouse IgG1/kappa constant domains (protein)
heavy chain: EVQLVESGGGLVQPGGSLRLSCTASGFTFSSFSMDWVRQAPGKGLEWVSYISPSADTIYYADSVKGRFTISRDNAKNTLYLQMNSLRAEDTAVYYCARGVLDYGDMLMPWGQGTLVTVSS
light chain: DIQMTQSPSSLSASVGDRVTITCQASQDITNYLNWYQQKPGKAPKLLIYDASNLETGVPSRFSGSGSGTDFTFTISSLQPEDIATYYCQQADNHPPWTFGGGTKVEIK
Cmax (mean, range over dose groups) [1]: 7400 to 664000 ng/mL | AUC0-inf ([1]; 3 mg/kg): 4890 µg·h/mL | AUClast ([1]; 3 mg/kg): 4710 µg·h/mL | AUC0-inf ([1]; 10 mg/kg): 17800 µg·h/mL | AUClast ([1]; 10 mg/kg): 17400 µg·h/mL | AUC0-inf ([1]; 30 mg/kg): 64200 µg·h/mL | AUClast ([1]; 30 mg/kg): 64100 µg·h/mL | PAD (Cloudman S91 tumors): 3 mg/kg | pharmacologically active dose (range) [2]: 3-10 mg/kg | tumor-free survivors (MBT2 tumors; MBT2, 3 mg/kg per week + anti-PD-1): 21% | tumor-free survivors (MBT2 tumors; MBT2, 10 mg/kg per week + anti-PD-1): 36% | PAD (MBT2 tumors; MBT-2, dose range 3 and 10 mg/kg): 10 mg/kg | PAD (EMT6 tumors): 10 mg/kg | pSmad3 staining in tumor vascular endothelium [3]: much diminished

B2: Ab6 Fab: Fab fragment of Ab6 used as analyte in SPR and in HDX-MS (antibody, V domains shown)
VH: B1 heavy chain
VL: B1 light chain
regions on proTGFβ1 strongly protected from deuterium exchange (proTGFβ1 / latent TGFβ1): three binding regions | koff (human LTBP1-ProTGFb1): 0.000255 s⁻¹ | kon (human LTBP1-ProTGFb1): 2.05e+06 M⁻¹ s⁻¹ | koff (human GARP-ProTGFb1): 0.000218 s⁻¹ | kon (human GARP-ProTGFb1): 2.1e+06 M⁻¹ s⁻¹ | koff (human LTBP3-ProTGFb1): 0.000831 s⁻¹ | kon (human LTBP3-ProTGFb1): 1.7e+06 M⁻¹ s⁻¹ | koff (human LRRC33-ProTGFb1): 0.000123 s⁻¹ | kon (human LRRC33-ProTGFb1): 845000 M⁻¹ s⁻¹
